First the molecules themselves.
B1: POU domain, class 4, transcription factor 1, residues 266 to 347; numbered along this chain, Q01851 (parent)
chain: RELEAFAERFKQRRIKLGVTQADVGSALANLKIPGVGSLSQSTICRFESLTLSHNNMIALKPILQAWLEEAEGAQREKMNKP

± gives the uncertainty stated by the source.

Variants of B1 are the subject of the series. Nature of the series: abundance fitness (aPCA) (normalised: wild type 0, dead -1); higher = more abundant; growth selection in yeast, the domain comes from the species named. The conditions noted are these: Homo sapiens.
REMEAFAERFKQRRIKLGVTQADVGSALANLKIPGVGSLSQSTICRFESLTLSHNNMIALKPILQAWLEEAEGAQREKMNKP: the abundance fitness was -0.029 ± 0.048.
Turning to REEEAFAERFKQRRIKLGVTQADVGSALANLKIPGVGSLSQSTICRFESLTLSHNNMIALKPILQAWLEEAEGAQREKMNKP, the abundance fitness is -0.247 ± 0.043.
With REDEAFAERFKQRRIKLGVTQADVGSALANLKIPGVGSLSQSTICRFESLTLSHNNMIALKPILQAWLEEAEGAQREKMNKP, the abundance fitness is -0.366 ± 0.099.
As for REIEAFAERFKQRRIKLGVTQADVGSALANLKIPGVGSLSQSTICRFESLTLSHNNMIALKPILQAWLEEAEGAQREKMNKP, the abundance fitness is -0.02 ± 0.1.
As for REREAFAERFKQRRIKLGVTQADVGSALANLKIPGVGSLSQSTICRFESLTLSHNNMIALKPILQAWLEEAEGAQREKMNKP, the figure is -0.622 ± 0.046; as for RESEAFAERFKQRRIKLGVTQADVGSALANLKIPGVGSLSQSTICRFESLTLSHNNMIALKPILQAWLEEAEGAQREKMNKP, -0.374 ± 0.052; as for REKEAFAERFKQRRIKLGVTQADVGSALANLKIPGVGSLSQSTICRFESLTLSHNNMIALKPILQAWLEEAEGAQREKMNKP, -0.564 ± 0.094.
Next, REWEAFAERFKQRRIKLGVTQADVGSALANLKIPGVGSLSQSTICRFESLTLSHNNMIALKPILQAWLEEAEGAQREKMNKP: -0.352 ± 0.044; REQEAFAERFKQRRIKLGVTQADVGSALANLKIPGVGSLSQSTICRFESLTLSHNNMIALKPILQAWLEEAEGAQREKMNKP: -0.262 ± 0.052.
As for REYEAFAERFKQRRIKLGVTQADVGSALANLKIPGVGSLSQSTICRFESLTLSHNNMIALKPILQAWLEEAEGAQREKMNKP, the abundance fitness was -0.107 ± 0.084.
Next, REVEAFAERFKQRRIKLGVTQADVGSALANLKIPGVGSLSQSTICRFESLTLSHNNMIALKPILQAWLEEAEGAQREKMNKP: -0.053 ± 0.038; REGEAFAERFKQRRIKLGVTQADVGSALANLKIPGVGSLSQSTICRFESLTLSHNNMIALKPILQAWLEEAEGAQREKMNKP: -0.523 ± 0.04; RETEAFAERFKQRRIKLGVTQADVGSALANLKIPGVGSLSQSTICRFESLTLSHNNMIALKPILQAWLEEAEGAQREKMNKP: -0.26 ± 0.057.
For RENEAFAERFKQRRIKLGVTQADVGSALANLKIPGVGSLSQSTICRFESLTLSHNNMIALKPILQAWLEEAEGAQREKMNKP, the abundance fitness was -0.287 ± 0.12.
As for REFEAFAERFKQRRIKLGVTQADVGSALANLKIPGVGSLSQSTICRFESLTLSHNNMIALKPILQAWLEEAEGAQREKMNKP, the figure is -0.103 ± 0.065; as for REHEAFAERFKQRRIKLGVTQADVGSALANLKIPGVGSLSQSTICRFESLTLSHNNMIALKPILQAWLEEAEGAQREKMNKP, -0.203 ± 0.12.
As for RELMAFAERFKQRRIKLGVTQADVGSALANLKIPGVGSLSQSTICRFESLTLSHNNMIALKPILQAWLEEAEGAQREKMNKP, the figure is 0.04 ± 0.064; as for RELTAFAERFKQRRIKLGVTQADVGSALANLKIPGVGSLSQSTICRFESLTLSHNNMIALKPILQAWLEEAEGAQREKMNKP, -0.031 ± 0.053.
As for RELWAFAERFKQRRIKLGVTQADVGSALANLKIPGVGSLSQSTICRFESLTLSHNNMIALKPILQAWLEEAEGAQREKMNKP, the figure is -0.057 ± 0.049; as for RELPAFAERFKQRRIKLGVTQADVGSALANLKIPGVGSLSQSTICRFESLTLSHNNMIALKPILQAWLEEAEGAQREKMNKP, -0.361 ± 0.078.
With RELRAFAERFKQRRIKLGVTQADVGSALANLKIPGVGSLSQSTICRFESLTLSHNNMIALKPILQAWLEEAEGAQREKMNKP, the abundance fitness was -0.065 ± 0.034.
Next, RELSAFAERFKQRRIKLGVTQADVGSALANLKIPGVGSLSQSTICRFESLTLSHNNMIALKPILQAWLEEAEGAQREKMNKP: -0.091 ± 0.046; RELKAFAERFKQRRIKLGVTQADVGSALANLKIPGVGSLSQSTICRFESLTLSHNNMIALKPILQAWLEEAEGAQREKMNKP: 0.056 ± 0.063.
With RELIAFAERFKQRRIKLGVTQADVGSALANLKIPGVGSLSQSTICRFESLTLSHNNMIALKPILQAWLEEAEGAQREKMNKP, the abundance fitness came out at 0.107 ± 0.08.
RELAAFAERFKQRRIKLGVTQADVGSALANLKIPGVGSLSQSTICRFESLTLSHNNMIALKPILQAWLEEAEGAQREKMNKP: the abundance fitness is -0.071 ± 0.048.
Next, RELCAFAERFKQRRIKLGVTQADVGSALANLKIPGVGSLSQSTICRFESLTLSHNNMIALKPILQAWLEEAEGAQREKMNKP: -0.149 ± 0.079.
As for RELDAFAERFKQRRIKLGVTQADVGSALANLKIPGVGSLSQSTICRFESLTLSHNNMIALKPILQAWLEEAEGAQREKMNKP, the figure is -0.031 ± 0.059; as for RELNAFAERFKQRRIKLGVTQADVGSALANLKIPGVGSLSQSTICRFESLTLSHNNMIALKPILQAWLEEAEGAQREKMNKP, -0.086 ± 0.097; as for RELFAFAERFKQRRIKLGVTQADVGSALANLKIPGVGSLSQSTICRFESLTLSHNNMIALKPILQAWLEEAEGAQREKMNKP, -0.054 ± 0.08.
For RELQAFAERFKQRRIKLGVTQADVGSALANLKIPGVGSLSQSTICRFESLTLSHNNMIALKPILQAWLEEAEGAQREKMNKP, the abundance fitness is -0.035 ± 0.059.
As for RELGAFAERFKQRRIKLGVTQADVGSALANLKIPGVGSLSQSTICRFESLTLSHNNMIALKPILQAWLEEAEGAQREKMNKP, the figure is -0.166 ± 0.034; as for RELLAFAERFKQRRIKLGVTQADVGSALANLKIPGVGSLSQSTICRFESLTLSHNNMIALKPILQAWLEEAEGAQREKMNKP, -0.134 ± 0.045.
As for RELHAFAERFKQRRIKLGVTQADVGSALANLKIPGVGSLSQSTICRFESLTLSHNNMIALKPILQAWLEEAEGAQREKMNKP, the figure is 0.108 ± 0.079.
As for RELYAFAERFKQRRIKLGVTQADVGSALANLKIPGVGSLSQSTICRFESLTLSHNNMIALKPILQAWLEEAEGAQREKMNKP, the figure is -0.153 ± 0.13.
